Test results taken from the supplement of paper PMC10201428.
± gives the standard deviation of the averaged measurements.

B1: library; a variant is named by its letters at N, in order (parent)
chain: AATGTTGTTGATGCAACCATAAAGTGATATTTAATAATTATTTATAATCAGCAACTTAACCACAAAACAACCATATATTGATATNTCACAAAACAACCATAANTTGATATTTTTGTGAATCGAGTATTTCAGCAAAACTACTGCAGTAAGAA

Key:
[1] = variants of: B1; assay: relative integration efficiency (T-LR orientation) vs wild-type transposon end (log2 (normalized fold change)); transposon end mutated: left end; higher = more efficient transposition; details: with VchCAST RNA-guided transposition machinery (E. coli BL21(DE3) host, lacZ target)
Experimental: (§1)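 Pooled, barcoded VchCAST (Tn6677) mini-transposon donor libraries; each variable transposon-end sequence sits in a fixed pDonor mini-transposon context (10-bp barcode and cargo not included). Left- or right-end libraries were co-transformed with pEffector (TniQ-Cascade, TnsABC, lacZ crRNA, T7, 0.1 mM IPTG) into E. coli BL21(DE3) and grown 18 h at 37 C. T-LR and T-RL junction amplicons were sequenced; output/input barcode fold change was normalised to the mean of four wild-type barcodes and log2-transformed. Two biological replicates; zero-count/undetected variants carry floor values (-10 / -15), censored here. Barcode uncoupling by PCR recombination adds noise.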

[2] = variants of: B1; assay: relative integration efficiency (T-RL orientation) vs wild-type transposon end (log2 (normalized fold change)); transposon end mutated: left end; higher = more efficient transposition; details: with VchCAST RNA-guided transposition machinery (E. coli BL21(DE3) host, lacZ target)
Experimental: as §1

Variant | relative integration efficiency (log2) [1] | relative integration efficiency (log2) [2]
AATGTTGTTGATGCAACCATAAAGTGATATTTAATAATTATTTATAATCAGCAACTTAACCACTAAACAACCATATATTGATATCTCACAAAACAACCATAAGTTGATATTTTTGTGAATCGAGTATTTCAGCAAAACTACTGCAGTAAGAA [CG A64T] | -0.053 ± 0.081 | -0.229 ± 0.11
AATGTTGTTGATCCAACCATAAAGTGATATTTAATAATTATTTATAATCAGCAACTTAACCACAAAACAACCATATATTGATATCTCACAAAACAACCATAAGTTGATATTTTTGTGAATCGAGTATTTCAGCAAAACTACTGCAGTAAGAA [CG G13C] | -0.392 ± 0.57 | 0.0316 ± 0.11
AATGTTGTTGATGCAACCATAAAGTGATATTTAATAATTATTTATAATCAGCAACTTAACCACAAAACAACCATATATTGATATCTCACAAAACAACCATAAGTTGATATTTTCGTGAATCGAGTATTTCAGCAAAACTACTGCAGTAAGAA [CG T114C] | -0.293 ± 0.5 | -0.448 ± 0.095
AATGTTGTTGATGCAACCATAAAGTGATATTTAATAATTATTTATAATCAGCAACTTAACCACAAAACAACCATATATTGATATCTCACATTTGAACCATAAGTTGATATTTTTGTGAATCGAGTATTTCAGCAAAACTACTGCAGTAAGAA [CG A91T A92T A93T C94G] | -1.3 ± 1.2 | -1.4 ± 0.69
AATGTTGTTGATGCAACCATAAAGTGATATTTAATAATTATTTATAATCAGCAACTTAACCACAAAACAACCATATATTGATATCTCACAAAACAACCATAAGTTGATATGGTTGTGAATCGAGTATTTCAGCAAAACTACTGCAGTAAGAA [CG T111G T112G] | -0.977 ± 0.75 | -0.622 ± 0.16
TTACTTGTTGATGCAACCATAAAGTGATATTTAATAATTATTTATAATCAGCAACTTAACCACAAAACAACCATATATTGATATCTCACAAAACAACCATAAGTTGATATTTTTGTGAATCGAGTATTTCAGCAAAACTACTGCAGTAAGAA [CG A1T A2T T3A G4C] | 0.144 ± 0.82 | 0.164 ± 0.1
AATGATGTTGATGCAACCATAAAGTGATATTTAATAATTATTTATAATCAGCAACTTAACCACAAAACAACCATATATTGATATCTCACAAAACAACCATAAGTTGATATTTTTGTGAATCGAGTATTTCAGCAAAACTACTGCAGTAAGAA [CG T5A] | -0.149 ± 0.06 | -0.22 ± 0.057
AATGTTGTTGATGCAACCATAAAGTGATATTTAATAATTATTTATAATCAGCAACTTAACCACAAAACAACCATATATTGATATCTCACACCCAAACCATAAGTTGATATTTTTGTGAATCGAGTATTTCAGCAAAACTACTGCAGTAAGAA [CG A91C A92C A93C C94A] | -0.269 ± 0.36 | -0.581 ± 0.55
AATGTTGTTGATGCAACCATAAAGTGATATTTAATAATTATTTATAATCAGCAACTTAACCACAAAACAACCAGATATTGATATCTCACAAAACAACCATAAGTTGATATTTTTGTGAATCGAGTATTTCAGCAAAACTACTGCAGTAAGAA [CG T74G] | -1.2 ± 1.2 | -1.35 ± 0.79
AATGTTGTTGATGCACCCATAAAGTGATATTTAATAATTATTTATAATCAGCAACTTAACCACAAAACACCCATATATTGATATCTCACAAAACACCCATAAGTTGATATTTTTGTGAATCGAGTATTTCAGCAAAACTACTGCAGTAAGAA [CG A16C A70C A96C] | -0.695 ± 0.11 | -0.475 ± 0.19
AATGTTGTTGATGCAACCATATATTGATATCTCATAATTATTTATAATCAGCAACTTAACCACAAAACAACCATAAAATGATAATTAACAAAACACCCATAAATTGATATTGCTGTGAATCGAGTATTTCAGCAAAACTACTGCAGTAAGAA [TA A22T G24T T31C A33C T76A T78A T84A C87A A96C T112G T113C] | -0.159 ± 0.75 | -0.261 ± 0.33
AATGTTGTTGATGCAACCATAAAGTGATATTTAATAATTATTTATAATCAGCAACTTAACCACAAAACAACCATATATTGATATCTCACAAAACAACCATAAAATGATAATTATGTGAATCGAGTATTTCAGCAAAACTACTGCAGTAAGAA [CA T104A T110A T113A] | -0.182 ± 0.39 | -0.656 ± 0.2
AATGTTGTTGATGCAACCATAAAGTGATTATTAATAATTATTTATAATCAGCAACTTAACCACAAAACAACCATATATTGATATCTCACAAAACAACCATAAGTTGATATTTTTGTGAATCGAGTATTTCAGCAAAACTACTGCAGTAAGAA [CG A29T T30A] | 0.489 ± 0.49 | 0.23 ± 0.29
AATGTTGTTGATGCAACCATAAAGTGATATTTAATAATTATTTATAATCAGCAACTTAACCACAAAACAACCATATATTTCTATCTCACAAAACAACCATAAGTTGATATTTTTGTGAATCGAGTATTTCAGCAAAACTACTGCAGTAAGAA [CG G80T A81C] | -1.7 ± 0.97 | -1.51 ± 0.7
CCTGTTGTTGATGCAACCATAAAGTGATATTTAATAATTATTTATAATCAGCAACTTAACCACAAAACAACCATATATTGATATCTCACAAAACAACCATAAGTTGATATTTTTGTGAATCGAGTATTTCAGCAAAACTACTGCAGTAAGAA [CG A1C A2C] | -0.0923 ± 0.12 | -0.242 ± 0.0032
AATGTTGTTGATGCAACCATAAAGTGATATTTAATAATTATTTATAATCAGCAACTTAACCACAAAACAACCATATATTGATATCTCACAAAACACACATAAGTTGATATTTTTGTGAATCGAGTATTTCAGCAAAACTACTGCAGTAAGAA [CG A96C C97A] | -2 ± 1 | -1.33 ± 0.57
AATGTTGTTGATGCAACCATAAAGTGATATTTAATAATTATTTATAATCAGCAACTTAACCACAAAACAACCATAAAATGATAATTAACAAAACAACCATAAAGTGATATTTATGTGAATCGAGTATTTCAGCAAAACTACTGCAGTAAGAA [TA T76A T78A T84A C87A T104G T113A] | 0.188 ± 0.023 | -0.245 ± 0.21
AATGTTGTTGATGCAACCATAAAGTGATATTTAATAATTATTTATAATCAGCAACTTAACCACTTTTCAACCATATATTGATATCTCACAAAACAACCATAAGTTGATATTTTTGTGAATCGAGTATTTCAGCAAAACTACTGCAGTAAGAA [CG A64T A65T A66T A67T] | -0.239 ± 0.35 | -0.0292 ± 0.19
AATGTTGTTGATGCACCCATAAATTGATATTGCATAATTATTTATAATCAGCAACTTAACCACAAAACACCCATAAATTGATATTGCACAAAACAACCATAAAGTGATATTTATGTGAATCGAGTATTTCAGCAAAACTACTGCAGTAAGAA [TA A16C G24T T32G A33C A70C T76A T86G T104G T113A] | -0.573 ± 0.99 | -0.869 ± 0.48
